In data set [1] the test system is E. coli (EPSPS gene-and-C-P lyase genes-deleted strain). The data set can be described thus: glyphosate resistance testing of Oryza sativa EPSPS mutant gene: growth of transformed E. coli on culture media containing glyphosate. Also noted: key: saturation index=0, no growth; saturation index=1, minor growth; saturation index=2, growth to half-saturation; saturation index=3, vigorous growth, but still not saturated; saturation index=4, rapid growth, meaning the strains have reached the maximum (saturation) concentration or the growth has reached the limit. Format: cell-based. The note with it: E. coli transformed with the gene. As for the experimental part:
A plurality of the above obtained mutant strains were inoculated on a plurality of screening culture media with different concentrations of glyphosate, respectively (the screening culture media contained different concentrations of glyphosate, and the glyphosate concentrations contained in them were 10 mM, 20 mM, 50 mM, etc., respectively, having a gradient in glyphosate concentrations, and of course, the glyphosate concentration may be set as required), and cultured at 37° C. overnight. The screening culture media were obtained by using M9 as a basal medium, to which certain concentrations of antibiotics, including Specs (Spectinomycin), Gen (Gentamycin) and Amp (Ampicillin), and different concentrations of glyphosate were added. M9 culture medium consists of the following ingredients: 13˜14 g/L of Na2HPO4, 5.7˜6.3 g/L of KH2PO4, 0.9˜1.1 g/L of NaCl, 1.8˜2.2 g/L of NH4Cl, 37˜43 g/L of glucose, 48˜52 g/L of MgSO4.7H2O and 21˜23 g/L of CaCl2.
(§1) For glyphosate resistance testing of Oryza sativa EPSPS mutant gene, E. coli (EPSPS gene-and-C-P lyase genes-deleted strain) respectively transformed with OsEM gene (experimental group) and OsE gene (control group) were inoculated to culture media containing 0 mM, 1 mM, 5 mM, 10 mM, 20 mM, 50 mM and 100 mM glyphosate to see the growth of E. coli (indicated by growth saturation index: saturation index=0, no growth; saturation index=1, minor growth; saturation index=2, growth to half-saturation; saturation index=3, vigorous growth, but still not saturated; saturation index=4, rapid growth, meaning the strains have reached the maximum (saturation) concentration or the growth has reached the limit).

For data set [2] the test system is unchanged. Nature of the data set: glyphosate resistance testing of Glycine max EPSPS mutant gene: growth of transformed E. coli on culture media containing glyphosate. Format: cell-based. Also noted: key: saturation index=0, no growth; saturation index=1, minor growth; saturation index=2, growth to half-saturation; saturation index=3, vigorous growth, but still not saturated; saturation index=4, rapid growth, meaning the strains have reached the maximum (saturation) concentration or the growth has reached the limit. The note with it: E. coli transformed with the gene. As for the experimental part:
as §1
For glyphosate resistance testing of Glycine max EPSPS mutant gene, E. coli (EPSPS gene-and-C-P lyase genes-deleted strain) respectively transformed with GmEM gene (experimental group) and GmE gene (control group) were inoculated to culture media containing 0 mM, 1 mM, 5 mM, 10 mM, 20 mM, 50 mM and 100 mM glyphosate to see the growth of E. coli.

Setting [3] is: culture medium with 0 mM glyphosate.
[4] abbreviates: culture medium with 1 mM glyphosate.
[5] abbreviates: culture medium with 5 mM glyphosate.
[6] abbreviates: culture medium with 10 mM glyphosate.
Where [7] appears, read: culture medium with 20 mM glyphosate.
Setting [8] is: culture medium with 50 mM glyphosate.
The mark [9] stands for this setting: culture medium with 100 mM glyphosate.

We go through two molecules from US10961546B2, “Glyphosate-resistant gene screening method, EPSPS mutant gene and deficient strain and use” (GEVOTO LLC, priority 2016, dated 2021).

Where “and” joins values, the source holds several entries; their conditions need not be identical. Equal entries are not always repeated.

B1: OsE: wild type Oryza sativa EPSPS gene, SEQ ID NO.1; control group (nucleic acid, listed as Oryza sativa)
DNA: ATGGCGTCCAACGCCGCGGCTGCGGCGGCGAAGGCGGAGGAGATCGTGCTCCAGCCCATCAGGGAGATCTCCGGGGCGGTTCAGCTGCCAGGGTCCAAGTCGCTCTCCAACAGGATCCTCCTCCTCTCCGCCCTCTCCGAGGGCACAACAGTGGTGGACAACTTGCTGAACAGTGAGGATGTTCACTACATGCTTGAGGCCCTGAAAGCCCTCGGGCTCTCTGTGGAAGCAGATAAAGTTGCAAAAAGAGCTGTAGTCGTTGGCTGTGGTGGCAAGTTTCCTGTTGAGAAGGATGCGAAAGAGGAAGTGCAACTCTTCTTGGGGAACGCTGCGACTGCAATGCGACTCTTGACAGCAGCCGTGACTGCTGCTGGTGGAAATGCAACTTATGTGCTTGATGGAGTGCCACGAATGAGGGAGAGACCGATTGGTGACTTGGTTGTCGGGTTGAAACAACTTGGTGCGGATGTCGACTGTTTCCTTGGCACTGAATGCCCACCTGTTCGTGTCAAGGGAATTGGAGGACTTCCTGGTGGCAAGGTTAAGCTCTCTGGTTCCATCAGCAGTCAGTACTTGAGTGCCTTGCTGATGGCTGCTCCTTTGGCCCTTGGGGATGTGGAGATCGAAATCATTGACAAACTAATCTCCATTCCTTACGTTGAAATGACATTGAGATTGATGGAGCGTTTTGGTGTGAAGGCAGAGCATTCTGATAGTTGGGACAGATTCTATATTAAGGGAGGGCAGAAGTACAAATCTCCTGGAAATGCCTATGTTGAAGGTGATGCCTCAAGCGCGAGCTATTTCTTGGCTGGTGCTGCAATCACTGGAGGCACTGTGACAGTTCAAGGTTGTGGTACGACCAGTTTGCAGGGTGATGTCAAATTTGCTGAGGTACTTGAGATGATGGGAGCAAAGGTTACATGGACTGACACCAGTGTAACCGTAACTGGTCCACCACGTGAGCCTTATGGGAAGAAACACCTGAAAGCTGTTGATGTCAACATGAACAAAATGCCTGATGTTGCCATGACCCTTGCCGTTGTTGCACTCTTCGCTGATGGTCCAACTGCTATCAGAGATGTGGCTTCCTGGAGAGTAAAGGAAACCGAAAGGATGGTTGCAATTCGGACCGAGCTAACAAAGCTGGGAGCATCGGTTGAAGAAGGTCCTGACTACTGCATCATCACCCCACCGGAGAAGCTGAACATCACGGCAATCGACACCTACGATGATCACAGGATGGCCATGGCCTTCTCCCTCGCTGCCTGCGCCGACGTGCCCGTGACGATCAGGGACCCTGGTTGCACCCGCAAGACCTTCCCCAACTACTTCGACGTTCTAAGCACTTTCGTCAGGAACTGA
On to B1, for which the Growth saturation index in data set [1] (setting [3]) came out at 4; in data set [1] (setting [4]), 0; in data set [1] (setting [5]) it was 0; in data set [1] (setting [6]) it was 0; in data set [1] (setting [7]), 0; in data set [1] (setting [8]), 0. The molecule further registered a Growth saturation index in data set [1] (setting [9]) of 0.

B2: GmE: wild type Glycine max EPSPS gene, SEQ ID NO.5; control group (nucleic acid)
DNA: ATGGATAGCGTGGCGGCGGCGGAAAAACCGAGCACCAGCCCGGAAATTGTGCTGGAACCGATTAAAGATTTTAGCGGCACCATTACCCTGCCGGGCAGCAAAAGCCTGAGCAACCGCATTCTGCTGCTGGCGGCGCTGAGCGAAGGCACCACCGTGGTGGATAACCTGCTGTATAGCGAAGATATTCATTATATGCTGGGCGCGCTGCGCACCCTGGGCCTGCGCGTGGAAGATGATAAAACCACCAAACAGGCGATTGTGGAAGGCTGCGGCGGCCTGTTTCCGACCAGCAAAGAAAGCAAAGATGAAATTAACCTGTTTCTGGGCAACGCGGCGACCGCGATGCGCAGCCTGACCGCGGCGGTGGTGGCGGCGGGCGGCAACGCGAGCTATGTGCTGGATGGCGTGCCGCGCATGCGCGAACGCCCGATTGGCGATCTGGTGGCGGGCCTGAAACAGCTGGGCGCGGATGTGGATTGCTTTCTGGGCACCAACTGCCCGCCGGTGCGCGTGAACGGCAAAGGCGGCCTGCCGGGCGGCAAAGTGAAACTGAGCGGCAGCGTGAGCAGCCAGTATCTGACCGCGCTGCTGATGGCGGCGCCGCTGGCGCTGGGCGATGTGGAAATTGAAATTGTGGATAAACTGATTAGCGTGCCGTATGTGGAAATGACCCTGAAACTGATGGAACGCTTTGGCGTGAGCGTGGAACATAGCGGCAACTGGGATCGCTTTCTGGTGCATGGCGGCCAGAAATATAAAAGCCCGGGCAACGCGTTTGTGGAAGGCGATGCGAGCAGCGCGAGCTATCTGCTGGCGGGCGCGGCGATTACCGGCGGCACCATTACCGTGAACGGCTGCGGCACCAGCAGCCTGCAGGGCGATGTGAAATTTGCGGAAGTGCTGGAAAAAATGGGCGCGAAAGTGACCTGGAGCGAAAACAGCGTGACCGTGAGCGGCCCGCCGCGCGATTTTAGCGGCCGCAAAGTGCTGCGCGGCATTGATGTGAACATGAACAAAATGCCGGATGTGGCGATGACCCTGGCGGTGGTGGCGCTGTTTGCGAACGGCCCGACCGCGATTCGCGATGTGGCGAGCTGGCGCGTGAAAGAAACCGAACGCATGATTGCGATTTGCACCGAACTGCGCAAACTGGGCGCGACCGTGGAAGAAGGCCCGGATTATTGCGTGATTACCCCGCCGGAAAAACTGAACGTGACCGCGATTGATACCTATGATGATCATCGCATGGCGATGGCGTTTAGCCTGGCGGCGTGCGGCGATGTGCCGGTGACCATTAAAGATCCGGGCTGCACCCGCAAAACCTTTCCGGATTATTTTGAAGTGCTGGAACGCCTGACCAAACATTAA
modifications: Glycine max
notes: control group
For the molecule B2, the Growth saturation index in data set [2] (setting [3]) was 4; in data set [2] (setting [4]) it was “cannot grow normally and 0”; in data set [2] (setting [5]) it was “cannot grow normally and 0”; in data set [2] (setting [6]), “cannot grow normally and 0”; in data set [2] (setting [7]) it was “cannot grow normally and 0”; in data set [2] (setting [8]), “cannot grow normally and 0”. In data set [2] (setting [9]), the Growth saturation index was found to be 0.
